Where a chain is given by its changes, count along the chain named.

Assay [1] deals with SARS-CoV-2 (2019-nCoV) Spike Protein (S1 Subunit, Fc Tag) (Sino 40591-V02H) (SARS-CoV-2, UniProt P0DTC2 16-685). Nature of the assay: Luminex bead binding, supernatant.
For assay [2], the target named is SARS-CoV-2 (2019-nCoV) Spike Protein (S1 Subunit, His Tag) (Sino 40591-V08H) (SARS-CoV-2, UniProt P0DTC2 16-685). Nature of the assay: Luminex bead binding, supernatant.
For assay [3], the target named is SARS-CoV-2 Spike Protein (S1 Subunit, His Tag) (Sino 40591-V08H) (SARS-CoV-2, UniProt P0DTC2 16-685). As to the kind of experiment: Luminex, supernatant.
Assay [4] deals with SARS-CoV-2 Spike Protein (S1 Subunit, Fc Tag) (Sino 40591-V02H) (SARS-CoV-2, UniProt P0DTC2 16-685). As to the kind of experiment: Luminex, supernatant.

B1: mAb11006 (antibody, V domains shown)
VH: EVQLVESGGGLVQPGGSLRLSCAASGFIVSRNYMSWVRQAPGKGLEWVSVIYSGGSTFYADSVKGRFTISRHNSKNTLYLQMNSLKAEDTAVYYCARELRGYFDYWGQGTLVTVSS
VL: DIQLTQSPSFLSASVGDRVTITCWASQGISSYLAWYQQKPGKAPKLLIYAASTLQSGVPSRFSGSGSGTEFTLTISSLQPEDFATYYCQLLNSYPYTFGQGTKLEIK
B1: the “Binding signal (MFI)” value in assay [1] was found to be 2050 MFI.

B2: mAb11008 (antibody, V domains shown)
VH: EVQLVESGGGLVQPGGSLRLSCAASGFTVSSNYMTWVRQAPGKGLEWVSVIYSGGSTFYADSVKGRFTISRHNSENTLYLQMNSLRAEDTAVYYCARDLAAAGTDYWGQGALVTVSS
VL: B1 VL with E81D, L90H, P95L
In the case of B2, the entries for the “Binding signal (MFI)” value in assay [1] and in assay [2] were 6880 MFI and 1420 MFI, respectively.

B3: mAb10934 (antibody, V domains shown)
VH: not shown
VL: DIQMTQSPSSLSASVGDRVTITCQASQDIWNYINWYQQKPGKAPKLLIYDASNLKTGVPSRFSGSGSGTDFTFTISSLQPEDIATYYCQQHDDLPPTFGQGTKVEIKR
On to B3, for which the MFI in assay [3] worked out at 27500 MFI; in assay [4], 20600 MFI.

B4: mAb10954 (antibody, V domains shown)
VH: EVQLVESGGGLVQPGGSLRLSCAASGITVSSNYMSWVRQAPGKGLEWVSLIYSGGSTYYADSVKGRFTISRDNSKNTLYLQMNSLRVEDTAVYYCARDHGMAAAGYNYWGQGTLVTVSS
VL: B3 VL with W30N, N31K, I33L, K55E, S76N, I83F, Y87F, H91Y, D93N, T97A
For B4, the MFI in assay [3] amounted to 21300 MFI; in assay [4], 16600 MFI.

B5: mAb10935 (antibody, V domains shown)
VH: EVQLVESGGGLVQPGGSLRLSCAASGFTVSSNYMSWVRQAPGKGLEWVSLIYSGGSTYYADSVKGRFTISRHNSKNTLYLQMNSLRSEDTAVYYCARVPLGDYYYGMDVWGQGTTVTVSS
VL: B3 VL with W30N, N31K, I33L, K55E, H91S, D93N, P96L, Q100G
For the molecule B5, the MFI amounted to 25600 MFI in assay [3] and 20000 MFI in assay [4].

B6: mAb10967 (antibody, V domains shown)
VH: EVQLVESGGGLVQPGGSLRLSCAASGFTVSSNYMSWVRQAPGKGLEWVSVIYPGGSTFYADSVKGRFTISRDNSKNTLYLQMNSLRAEDTAVYYCARDQRDFAWGQGTLVTVSS
VL: B3 VL with W30S, I33L, K55E, S77G, H91Y, D93N, K103R, V104L
Regarding B6, the MFI in assay [3] was found to be 21900 MFI; in assay [4], 15800 MFI.

B7: mAb10930 (antibody, V domains shown)
VH: EVQLVESGGGLVQPGRSLRLSCAASGFTFDDYAMYWVRQAPGKGLEWVSGISWNSGSIGYADSVKGRFTISRDNAKNSLYLQMNSLRAADTALYYCAKDKDWNSRGYYYYGMDVWGQGTTVTVSS
VL: not shown
B7: the MFI in assay [3] amounted to 21200 MFI; in assay [4], 16500 MFI.

B8: mAb10932 (antibody, V domains shown)
VH: EVQLVESGGGLVQSGGSLRLSCAASGLTVSSNYMSWVRQAPGKGLEWVSVIYSGGSTFYSDSVKGRFTISRHNSKNTLYLQMNSLRAEDTAVYYCARARGDAFDIWGQGTMVTVSS
VL: not shown
For the molecule B8, the MFI in assay [3] was found to be 22100 MFI; in assay [4], 17600 MFI.

B9: mAb10971 (antibody, V domains shown)
VH: EVQLVESGGGLIQPGGSLRLSCAASGVTVSSNYMSWVRQAPGKGLEWVSVIYSGGSTFYSDSVKGRFSISRDNSKNTLYLQMNSLRAEDTAVYYCARDLYYYGMDVWGQGTTVTVSS
VL: DIQLTQSPSFLSASVGDRVTITCRASQGISTYLAWYQQKPGKAPKLLIYAASTLQSGVPSRFSGSGSGTEFTLTISSLQPEDFATYYCQQLDSYPGLTFGGGTKVEIKR
Turning to B9, the MFI in assay [3] stood at 21600 MFI; in assay [4] it was 17000 MFI.

B10: mAb11004 (antibody, V domains shown)
VH: QVQLVESGGGVVQPGRSLRLSCVASGFTFSIYGMDWVRQAPGKGLEWVAVISYDGSNKYYADSVKGRFTISRDNSKNTLYLQMNSLRPEDTAVYYCAKDREAAADAFDIWGQGTMVTVSS
VL: DIQMTQSPSSVSASVGDRVTITCRASQGISSWLAWYQQKPGKAPKLLIYAASSLHSGVPSRFSGSGSGTDFTLTISSLQPEDFATYYCQQANSFRLTFGGGTKVEIK
Take B10: the “Binding signal (MFI)” value in assay [1] amounted to 4480 MFI; in assay [2] it was 9530 MFI.

B11: mAb10937 (antibody, V domains shown)
VH: QITLKESGPTLVKPTQTLTLTCTFSGFSLSTNVVGVGWIRQPPGKALEWLALIYWNDDKRYSPSLKSRLTITKDTSKNQVVLTMTNMDPVDTATYYCAHGPTGDYFDYWGQGTLVTVSS
VL: not shown
Take B11: the MFI in assay [3] worked out at 26400 MFI; in assay [4], 19600 MFI.

B12: mAb10964 (antibody, V domains shown)
VH: QVQLQESGPGLVKPSETLSLTCTVSGGSINNYYWIWIRQPPGKGLEWIGYIYHSGSTNYNPSLKSRVTISVDTSKNQFSLKVSSVTAADTAVYYCANMVRGVYEDDYWGQGTLVTVSS
VL: DIQMTQSPSSLSASVGDRVTITCRASQSISNYLNWYQQKPGKAPKLLIFAASSLRSGVPSRFSGSGSGTDFTLTISSLHPEDFATYYCQQNYNTPLTFGPGTKVDIKR
As for B12, the MFI in assay [3] came out at 24200 MFI; in assay [4], 18600 MFI.

B13: mAb10966 (antibody, V domains shown)
VH: EVQLVESGGGLVQPGGSLRLSCAASGLTVSSNYMSWVRQAPGKGLEWVSVIYSGGSTFYADSVKGRFTISRDNSKNTLYLQMNSLRPEDTAVYYCAREGRIAATGYGMDVWGQGTTVTVSS
VL: not shown
On to B13, for which the MFI was 23300 MFI in assay [3] and 16400 MFI in assay [4].

B14: mAb10989 (antibody, V domains shown)
VH: QVQLVQSGAEVKKPGASVKVSCKASGYIFTGYYMHWVRQAPGQGLEWMGWINPNSGGANYAQKFQGRVTLTRDTSITTVYMELSRLRFDDTAVYYCARGSRYDWNQNNWFDPWGQGTLVTVSS
VL: QSALTQPASVSGSPGQSITISCTGTSSDVGTYNYVSWYQQHPGKAPKLMIFDVSNRPSGVSDRFSGSKSGNTASLTISGLQAEDEADYYCSSFTTSSTVVFGGGTKLTVLG
For the molecule B14, the MFI in assay [3] is 14200 MFI; in assay [4], 12300 MFI.

B15: mAb10998 (antibody, V domains shown)
VH: EVQLVESGGGLVHPGGSLRLSCAASGLTVSSNYMSWVRQAPGKGLEWVSVIYSGGSTYYADSVKGRFTISRHNSKNTLFLQMNSLRAEDTAVYYCARDRPITGTTLDVWGQGTTVTVSS
VL: DIQMTQSPSSLFASVGDRVTITCRASQSISSYLNWYQQKPGKAPKLLIYAASSLQSGVPSRFSGSGSGTDFTLTISSLQPEDFAFYYCQQTYSTPPITFGQGTRLEIK
Turning to B15, the figures for the “Binding signal (MFI)” value in assay [1] and in assay [2] were 724 MFI and 717 MFI, respectively.

B16: mAb10921 (antibody, V domains shown)
VH: EVQLVESGGGLVQPGGSLRLSCAASGITVSSNYMSWVRQAPGKGLEWVSVIYSGGSTFYADSVKGRFTISRHNSKNTLYLQMNSLRAEDTAVYYCARERNFDAFDIWGQGTMVTVSS
VL: DIQMTQSPSSVSASVGDRVTITCRASQGISSWLAWYQQKPGKAPKLLIYAASSLQSGVPSRFSGSGSGTDFTLTISSLQPEDFATYYCQQANSFPLFTFGPGTKVDIKR
On to B16, for which the MFI was 12200 MFI in assay [3] and 8960 MFI in assay [4].

B17: mAb10957 (antibody, V domains shown)
VH: B9 VH with I12V, S60A, S68T, Y79F, A87I, Y100G, Y101P
VL: B9 VL with T31S, E70Q, T72I, D92N, L97F, G101P, E106D
With B17, the MFI in assay [3] amounted to 12000 MFI; in assay [4], 8450 MFI.

B18: mAb10982 (antibody, V domains shown)
VH: EVQLVESGGGLVQPGGSLRLSCAASGLTVSSNYMSWVRQAPGKGLEWVSVIYSGGTTYYADSVKGRFTISRHNSKNTLSLQMNSLRAEDTAVYYCARGEGANYYGMDVWGQGTTVTVSS
VL: QSVLTQPPSVSGAPGQRVTISCTGSSSNIGTGYDVHWYQQLPGTAPKLLIYGNSNRPSGVPDRFSGSKSGTSASLAITGLQAEDEADYYCQSYDSSLSGYVVFGGGTKLTVLG
For the molecule B18, the figures for the MFI in assay [3] and in assay [4] were 14000 MFI and 10800 MFI, respectively.

B19: mAb10986 (antibody, V domains shown)
VH: EVQLVESGGGLVQPGGSLRLSCAASEFTVSSNYMSWVRQAPGKGLEWVSVIYSGGSTFYADSVKGRFTISRDNSKNTLYLQMNSLRAEDTAVYYCARALPYGDLHFDYWGQGTLVTVSS
VL: B18 VL with S54T, G99D, Y100S, V101Y, G105T, L109V
On to B19, for which the values for the MFI in assay [3] and in assay [4] were 19100 MFI and 16000 MFI, respectively.

B20: mAb10939 (antibody, V domains shown)
VH: EVQLVESGGGLVQPGGSLRLSCAASGLTVSSNYMNWVRQVPGKGLEWVSVIYSGGSKFYVDSVKGRFTISRHNSKNTLYLQMNSLRPEDTAVYYCTRDAQYYGMDVWGQGTTVTVSS
VL: DIQMTQSPSSLSASVGDRVTITCRASQSISTYLHWYQQKPGEAPKLLIYAASSLQSGVPSRFSGSGSGTDFTLTISSLQPEDFATYYCQQSYSTPPEIFGQGTKLEIKR
With B20, the results for the MFI in assay [3] and in assay [4] were 23900 MFI and 18200 MFI, respectively.

B21: mAb10956 (antibody, V domains shown)
VH: B9 VH with I12V, V27L, S60A, S68T, Y100I, Y101K
VL: not shown
B21: the values for the MFI in assay [3] and in assay [4] were 20000 MFI and 15000 MFI, respectively.

These data come from patent US20240043504A1 (published 2024).
